Results: patent US20140378382A1 (WISCONSIN ALUMNI RESEARCH FOUNDATION, published 2014)
Non-standard residues stand in square brackets, D forms with d. No end group written: not given here. APC = aminopyrrolidine carboxylic acid (2-aminopyrrolidine-4-carboxylic acid); ACPC = 2-aminocyclopentane carboxylic acid; hArg = N=C(N)NCCCC[C@H](N)C(=O)O; β3hQ = NC(=O)CC[C@H](N)CC(=O)O; β3hS = N[C@@H](CO)CC(=O)O; β3hA = C[C@H](N)CC(=O)O; Aib = CC(C)(N)C(=O)O

B1: β3Ala(1) PTH(1-34) (peptide)
peptide: [β3hA]VSEIQLMHNLGKHLNSMERVEWLRKKLQDVHNF-NH2
modifications: N-terminus assumed
SMILES: CC[C@H](C)[C@H](NC(=O)[C@H](CCC(=O)O)NC(=O)[C@H](CO)NC(=O)[C@@H](NC(=O)C[C@H](C)N)C(C)C)C(=O)N[C@@H](CCC(N)=O)C(=O)N[C@@H](CC(C)C)C(=O)N[C@@H](CCSC)C(=O)N[C@@H](Cc1c[nH]cn1)C(=O)N[C@@H](CC(N)=O)C(=O)N[C@@H](CC(C)C)C(=O)NCC(=O)N[C@@H](CCCCN)C(=O)N[C@@H](Cc1c[nH]cn1)C(=O)N[C@@H](CC(C)C)C(=O)N[C@@H](CC(N)=O)C(=O)N[C@@H](CO)C(=O)N[C@@H](CCSC)C(=O)N[C@@H](CCC(=O)O)C(=O)N[C@@H](CCCNC(=N)N)C(=O)N[C@H](C(=O)N[C@@H](CCC(=O)O)C(=O)N[C@@H](Cc1c[nH]c2ccccc12)C(=O)N[C@@H](CC(C)C)C(=O)N[C@@H](CCCNC(=N)N)C(=O)N[C@@H](CCCCN)C(=O)N[C@@H](CCCCN)C(=O)N[C@@H](CC(C)C)C(=O)N[C@@H](CCC(N)=O)C(=O)N[C@@H](CC(=O)O)C(=O)N[C@H](C(=O)N[C@@H](Cc1c[nH]cn1)C(=O)N[C@@H](CC(N)=O)C(=O)N[C@@H](Cc1ccccc1)C(N)=O)C(C)C)C(C)C
B2: M-PTH(1-34) (peptide)
peptide: AVAEIQLMHQ[hArg]AKWLNSMRRVEWLRKKLQDVHNF-NH2
modifications: N-terminus assumed
SMILES: CC[C@H](C)[C@H](NC(=O)[C@H](CCC(=O)O)NC(=O)[C@H](C)NC(=O)[C@@H](NC(=O)[C@H](C)N)C(C)C)C(=O)N[C@@H](CCC(N)=O)C(=O)N[C@@H](CC(C)C)C(=O)N[C@@H](CCSC)C(=O)N[C@@H](Cc1c[nH]cn1)C(=O)N[C@@H](CCC(N)=O)C(=O)N[C@@H](CCCCNC(=N)N)C(=O)N[C@@H](C)C(=O)N[C@@H](CCCCN)C(=O)N[C@@H](Cc1c[nH]c2ccccc12)C(=O)N[C@@H](CC(C)C)C(=O)N[C@@H](CC(N)=O)C(=O)N[C@@H](CO)C(=O)N[C@@H](CCSC)C(=O)N[C@@H](CCCNC(=N)N)C(=O)N[C@@H](CCCNC(=N)N)C(=O)N[C@H](C(=O)N[C@@H](CCC(=O)O)C(=O)N[C@@H](Cc1c[nH]c2ccccc12)C(=O)N[C@@H](CC(C)C)C(=O)N[C@@H](CCCNC(=N)N)C(=O)N[C@@H](CCCCN)C(=O)N[C@@H](CCCCN)C(=O)N[C@@H](CC(C)C)C(=O)N[C@@H](CCC(N)=O)C(=O)N[C@@H](CC(=O)O)C(=O)N[C@H](C(=O)N[C@@H](Cc1c[nH]cn1)C(=O)N[C@@H](CC(N)=O)C(=O)N[C@@H](Cc1ccccc1)C(N)=O)C(C)C)C(C)C

The binders below were run against T1, human parathyroid hormone receptor 1, wild-type (hPTHR-1) (human, UniProt Q03431 27-593) (assay: cell-based or functional assay).
T1 sequence (looked up): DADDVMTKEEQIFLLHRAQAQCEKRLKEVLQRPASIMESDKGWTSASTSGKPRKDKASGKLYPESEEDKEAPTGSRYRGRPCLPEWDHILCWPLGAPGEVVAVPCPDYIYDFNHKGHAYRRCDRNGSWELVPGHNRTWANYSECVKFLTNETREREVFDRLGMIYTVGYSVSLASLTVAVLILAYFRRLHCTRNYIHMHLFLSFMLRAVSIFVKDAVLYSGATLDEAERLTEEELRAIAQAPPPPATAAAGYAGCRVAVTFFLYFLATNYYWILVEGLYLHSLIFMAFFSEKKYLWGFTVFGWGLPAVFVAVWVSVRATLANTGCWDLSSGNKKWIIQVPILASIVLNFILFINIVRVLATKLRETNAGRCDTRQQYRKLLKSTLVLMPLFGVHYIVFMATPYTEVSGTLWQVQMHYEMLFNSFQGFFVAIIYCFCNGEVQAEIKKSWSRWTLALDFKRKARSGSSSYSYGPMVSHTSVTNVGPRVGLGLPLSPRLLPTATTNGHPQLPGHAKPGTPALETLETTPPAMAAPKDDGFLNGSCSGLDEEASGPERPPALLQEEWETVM

Row | Fold PTH [fold] | cAMP EC50 [nM] | Binder
1 | 107 | 9.74 | SVSEIQL[ACPC]HNLGKHLNSMERVEWLRKKLQDVHNF-NH2 [ACPC(8) PTH(1-34)]
2 | 3.7 | 0.34 | SVSEI[ACPC]LMHNLGKHLNSMERVEWLRKKLQDVHNF-NH2 [ACPC(6) PTH(1-34)]
3 |  | 0.06 | [β3hS]VSEIQLMHNLGKHLNSMERVEWLRKKLQDVHNF-NH2 [β3Ser(1) PTH(1-34)]
4 | 3 | 0.27 | S[ACPC]SEIQLMHNLGKHLNSMERVEWLRKKLQDVHNF-NH2 [ACPC(2) PTH(1-34)]
5 |  | 14.6 | SVSEI[β3hQ]LMHNLGKHLNSMERVEWLRKKLQDVHNF-NH2 [β3Gln(6) PTH(1-34)]
6 | 126 | 11.5 | SV[ACPC]EIQLMHNLGKHLNSMERVEWLRKKLQDVHNF-NH2 [ACPC(3) PTH(1-34)]
7 | 2.2 | 0.2 | B1
8 | 1.9 | 0.17 | SVSE[ACPC]QLMHNLGKHLNSMERVEWLRKKLQDVHNF-NH2 [ACPC(5) PTH(1-34)]
9 | 1.6 | 0.15 | [ACPC]VSEIQLMHNLGKHLNSMERVEWLRKKLQDVHNF-NH2 [ACPC(1) PTH(1-34)]

The binders below were run against T2, delNT PTHR1 (human, UniProt Q03431 27-593) (assay: cell-based or functional assay).
T2 sequence (looked up): T1 sequence (looked up)

Row | Fold PTH [fold] | cAMP EC50 [nM] | Binder
10 | 480 | 29000 | SVSEIQL[ACPC]HNLGKHLNSMERVEWLRKKLQDVHNF-NH2 [ACPC(8) PTH(1-34)]
11 | 360 | 22000 | SVSEI[ACPC]LMHNLGKHLNSMERVEWLRKKLQDVHNF-NH2 [ACPC(6) PTH(1-34)]
12 | 170 | 11000 | S[ACPC]SEIQLMHNLGKHLNSMERVEWLRKKLQDVHNF-NH2 [ACPC(2) PTH(1-34)]
13 |  | 6700 | SVSEI[β3hQ]LMHNLGKHLNSMERVEWLRKKLQDVHNF-NH2 [β3Gln(6) PTH(1-34)]
14 | 130 | 7800 | SV[ACPC]EIQLMHNLGKHLNSMERVEWLRKKLQDVHNF-NH2 [ACPC(3) PTH(1-34)]
15 | 0.4 | 25 | B1
16 | 65 | 4100 | SVSE[ACPC]QLMHNLGKHLNSMERVEWLRKKLQDVHNF-NH2 [ACPC(5) PTH(1-34)]
17 | 8 | 500 | [ACPC]VSEIQLMHNLGKHLNSMERVEWLRKKLQDVHNF-NH2 [ACPC(1) PTH(1-34)]

These binders were tested against T3, rat parathyroid hormone receptor 1, wild-type (rPTHR-1) (rat, UniProt P25961 27-591) (assay: cell-based or functional assay).
T3 sequence (looked up): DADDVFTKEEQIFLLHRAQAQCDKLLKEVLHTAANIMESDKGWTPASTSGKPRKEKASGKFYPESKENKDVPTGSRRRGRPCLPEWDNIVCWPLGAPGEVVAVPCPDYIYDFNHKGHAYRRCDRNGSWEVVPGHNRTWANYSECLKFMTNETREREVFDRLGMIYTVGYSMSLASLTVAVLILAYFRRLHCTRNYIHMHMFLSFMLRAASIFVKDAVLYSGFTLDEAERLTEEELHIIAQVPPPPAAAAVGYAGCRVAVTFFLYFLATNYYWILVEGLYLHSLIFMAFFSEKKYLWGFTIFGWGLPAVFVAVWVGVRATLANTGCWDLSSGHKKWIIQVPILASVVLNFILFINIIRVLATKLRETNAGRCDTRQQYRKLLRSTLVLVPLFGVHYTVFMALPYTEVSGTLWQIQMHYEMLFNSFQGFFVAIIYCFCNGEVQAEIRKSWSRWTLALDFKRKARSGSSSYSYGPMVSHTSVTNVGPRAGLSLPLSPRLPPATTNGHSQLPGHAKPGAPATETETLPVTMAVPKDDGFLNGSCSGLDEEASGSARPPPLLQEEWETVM

Row | cAMP Max | Binder
18 | 1 relative to PTH(1-34) | SVSEIQLMHNLGKHLNSMERVEWLRKKLQDVHNF-NH2 [PTH(1-34)]

The binders below were run against T4, PTHR-1 (species and cells not stated for the assay) (Homo sapiens (Human), UniProt Q03431 27-593) (assay: cell-based or functional assay).
T4 sequence: T1 sequence (looked up)

Row | Fold PTH [fold] | cAMP EC50 [nM] | Binder
19 | 4.2 | 0.34 | B2

Molecular target: T3, rat parathyroid hormone receptor 1, …
Experiment: cell-based or functional assay
Design: AUC-on / AUC-washout: unit not given beside the values
Remark: another data set of the same source

Row | AUC Ratio | AUC-on | AUC-washout | Binder
20 | 14.8 | 43000 | 640000 | B2
21 |  | 92000 | 100000 | SVSEIQLMHNLGKHLNSMERVEWLRKKLQDVHNF-NH2 [PTH(1-34)]

Molecular target: T3, rat parathyroid hormone receptor 1, …
Experiment: cell-based or functional assay
Remark: another data set of the same source

Row | cAMP Max [cps × 10-3] | Binder
22 | 74 | SVSEIQLMHNLGKHLNSMERVEWLRKKLQDVHNF (C-terminal amide; three β3 residues with native side chains, αααβ pattern; bold marks lost in text (inferred 23, 27, 31)) [A3]
23 | 65 | SVSEIQLMHNLGKHLNSMERVEWLRKKLQDVHNF-NH2 [PTH(1-34)]

Molecular target: T1, human parathyroid hormone receptor 1, …
Experiment: cell-based or functional assay
Remark: another data set of the same source

Row | cAMP EC50 [nM] | Binder
24 | 0.29 | SVSEIQLMHNLGKHLNSMERVEWLRKKLQDVHNF (C-terminal amide; three β3 residues with native side chains, αααβ pattern; bold marks lost in text (inferred 23, 27, 31)) [A3]

Molecular target: T1, human parathyroid hormone receptor 1, …
Experiment: cell-based or functional assay
Remark: another data set of the same source

Row | cAMP EC50 [nM] | Binder
25 | 0.29 | SVSEIQLMHNLGKHLNSMERVEWLRKKLQDVHNF (C-terminal amide; three β3 residues with native side chains, αααβ pattern; bold marks lost in text (inferred 23, 27, 31)) [A3]

Molecular target: T1, human parathyroid hormone receptor 1, …
Experiment: cell-based or functional assay
Remark: another data set of the same source

Row | cAMP EC50 [nM] | Binder
26 | 141 | [ACPC]VSEHQ[ACPC]LHDKGKSIQDLRRRELLEKLL[Aib]KLHT[ACPC]-NH2 (not fully specified; also: D6 β3 residues, positions not shown (marking lost)) [D6 BA058 ACPC(1,7)]
27 | 0.65 | [ACPC]VSE[ACPC]Q[ACPC]LHDKGK[ACPC]IQD[ACPC]RRR[APC]LLE[APC]LL[Aib][ACPC]LHT[ACPC]-NH2 [CycD6 BA058 ACPC(1,5,7)]
28 | 0.26 | [ACPC]VSE[ACPC]Q[ACPC]LHDKGKSIQDLRRRELLEKLL[Aib]KLHTA-NH2 [BA058 ACPC(1,5,7)]
29 | 0.18 | AVSEHQLLHDKGK[ACPC]IQD[ACPC]RRR[APC]LLE[APC]LL[Aib][ACPC]LHT[ACPC]-NH2 [CycD6 BA058]
30 | 4.69 | [ACPC]VSEHQ[ACPC]LHDKGKSIQDLRRRELLEKLL[Aib]KLHTA-NH2 [BA058 ACPC(1,7)]
31 | 18.9 | [ACPC]VSEHQ[ACPC]LHDKGK[ACPC]IQD[ACPC]RRR[APC]LLE[APC]LL[Aib][ACPC]LHT[ACPC]-NH2 [CycD6 BA058 ACPC(1,7)]

Molecular target: T4, PTHR-1 (species and cells not stated …)
Experiment: cell-based or functional assay
Remark: another data set of the same source

Row | EC50(+)inhibitor/EC50(-)inhibitor [ratio] | EC50 of PTH(1-34) signaling with 1 µM inhibitor [nM] | Binder
32 | 1.6 | 0.25 | LMHNLGKHLNSMERVEWLRKKLQDVHNF-NH2 [hPTH(7-34)]
